Consider 4 substances from patent US20150051136A1.

A word on the Kd: it is a measure of binding affinity in units of concentration. The low end stands for higher affinity, the high end for lower affinity.

The target in assay [1] is S100B. The assay is described as follows: cell-based or functional assay.
In assay [2] the target is HMGB1 (high mobility group box 1). The assay is described as follows: cell-based or functional assay.
For assay [3], the target named is S100B. In words: BIAcore SPR, sRAGE amine-coupled to CM5 chip, S100B as analyte, steady state model. For orientation: SPR reads the build-up and loss of mass on a sensor chip optically.
Assay [4] has as its target HMGB1 (high mobility group box 1). In words: HMGB1 ELISA (as in Liu et al. 2009).
The target is the same in assay [5]. In words: BIAcore SPR, sRAGE amine-coupled to CM5 chip, HMGB1 as analyte, 1:1 Langmuir model.

sRAGE^CHO(desialylated), sequence (Q15109 other isoform, or with tags, fused parts or gaps): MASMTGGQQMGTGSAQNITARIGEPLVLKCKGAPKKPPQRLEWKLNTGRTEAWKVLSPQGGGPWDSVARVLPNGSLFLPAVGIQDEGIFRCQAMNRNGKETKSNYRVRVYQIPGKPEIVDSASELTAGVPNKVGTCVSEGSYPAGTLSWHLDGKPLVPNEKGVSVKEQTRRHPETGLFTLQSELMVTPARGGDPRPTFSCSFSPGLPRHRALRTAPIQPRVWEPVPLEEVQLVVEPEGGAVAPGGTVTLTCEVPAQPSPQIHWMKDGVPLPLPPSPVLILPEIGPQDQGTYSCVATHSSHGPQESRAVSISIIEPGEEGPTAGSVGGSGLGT
sRAGE^CHO (human T7-Gly-Ser-RAGE (23-340) polypeptide produced in CHO-CD14 cells), sequence (Q15109 other isoform, or with tags, fused parts or gaps): as above
sRAGE^sf9 (human T7-sRAGE produced in baculovirus-infected sf9 insect cells), sequence (Q15109 23-340, tags or fused parts left off): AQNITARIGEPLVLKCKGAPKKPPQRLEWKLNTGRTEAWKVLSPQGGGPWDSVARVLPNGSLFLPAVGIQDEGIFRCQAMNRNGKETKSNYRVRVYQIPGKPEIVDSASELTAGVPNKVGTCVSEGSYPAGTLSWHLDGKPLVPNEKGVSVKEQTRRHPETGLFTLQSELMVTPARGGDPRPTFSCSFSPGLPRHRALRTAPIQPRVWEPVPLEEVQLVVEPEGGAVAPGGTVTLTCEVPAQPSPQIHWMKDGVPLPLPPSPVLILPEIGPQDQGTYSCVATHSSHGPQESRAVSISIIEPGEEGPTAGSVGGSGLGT
S100B, sequence (D3DSN6 whole entry): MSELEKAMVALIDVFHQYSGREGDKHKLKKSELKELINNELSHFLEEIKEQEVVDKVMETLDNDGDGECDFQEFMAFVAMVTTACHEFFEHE
HMGB1 (high mobility group box 1), sequence (P09429 whole entry): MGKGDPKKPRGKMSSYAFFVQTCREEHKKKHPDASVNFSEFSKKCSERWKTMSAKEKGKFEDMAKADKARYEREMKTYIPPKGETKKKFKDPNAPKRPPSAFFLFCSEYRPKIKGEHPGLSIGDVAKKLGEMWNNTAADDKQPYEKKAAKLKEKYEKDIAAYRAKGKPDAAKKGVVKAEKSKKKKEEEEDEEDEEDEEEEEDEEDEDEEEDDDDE

Consider “sRAGE^CHO(desialylated) (from UniProt Q15109 23-340) (receptor)”, for which, in assay [1], the inhibition of s100B-induced NF-κB activity (luciferase reporter, HEK293-RAGE cells; 100 nM ligand, 100 nM sRAGE) worked out at 18%. The substance also yielded an inhibition of HMGB1-induced NF-κB activity (luciferase reporter, HEK293-RAGE cells; 100 nM ligand, 100 nM sRAGE) in assay [2] of 25.8%. In assay [3], this substance showed a Kd of 25.3 nM.

Consider “sRAGE^sf9 (human T7-sRAGE produced in baculovirus-infected sf9 insect cells) (from UniProt Q15109 23-340) (receptor)”, for which the inhibition of s100B-induced NF-κB activity (luciferase reporter, HEK293-RAGE cells; 100 nM ligand, 100 nM sRAGE) in assay [1] was 20.4%. The inhibition of HMGB1-induced NF-κB activity (luciferase reporter, HEK293-RAGE cells; 100 nM ligand, 100 nM sRAGE) in assay [2] amounted to 19.7%. In assay [3], this substance showed a Kd of 32 nM.

Consider “sRAGE^CHO(N25T/N81T) (from UniProt Q15109 26-340) (receptor)”, for which, in assay [4], the Kd is 521 nM and the fold of the dissociation constant (Kd) against wild-type sRAGE amounted to 10 fold. Further, the inhibition of HMGB1-induced NF-κB activity (luciferase reporter, HEK293-RAGE cells; 100 nM ligand, 100 nM sRAGE) in assay [2] is 0.3%.

In the case of “sRAGE^CHO (human T7-Gly-Ser-RAGE (23-340) polypeptide produced in CHO-CD14 cells) (from UniProt Q15109 23-340) (receptor)”, the dissociation constant (Kd) in assay [4] came to 49.5 nM; in assay [5], 13.3 nM; in assay [3], 90.5 nM. The substance also came in with an inhibition of s100B-induced NF-κB activity (luciferase reporter, HEK293-RAGE cells; 100 nM ligand, 100 nM sRAGE) in assay [1] of 40.2%. In assay [2], this substance yielded an inhibition of HMGB1-induced NF-κB activity (luciferase reporter, HEK293-RAGE cells; 100 nM ligand, 100 nM sRAGE) of 58.6%.
